Laboratory results: paper PMC6356446, “Involvement of N-glycan in Multiple Receptor Tyrosine Kinases Targeted by Ling-Zhi-8 for Suppressing HCC413 Tumor Progression” (Cancers, 2018)

Tests used:
Assay in all cases: cell-based or functional assay
[1] = molecular target: EGFR (human (endogenous in HCC413), UniProt P00533 25-1210, N-glycans (sites not given))
[2] = molecular target: c-Met (human (endogenous in HCC413), UniProt P08581 25-1390, N-glycans (sites not given))
[3] = molecular target: HER3 (human (endogenous in HCC413), UniProt P21860 20-1342, N-glycans (sites not given))
HER3, sequence (P21860 20-1342): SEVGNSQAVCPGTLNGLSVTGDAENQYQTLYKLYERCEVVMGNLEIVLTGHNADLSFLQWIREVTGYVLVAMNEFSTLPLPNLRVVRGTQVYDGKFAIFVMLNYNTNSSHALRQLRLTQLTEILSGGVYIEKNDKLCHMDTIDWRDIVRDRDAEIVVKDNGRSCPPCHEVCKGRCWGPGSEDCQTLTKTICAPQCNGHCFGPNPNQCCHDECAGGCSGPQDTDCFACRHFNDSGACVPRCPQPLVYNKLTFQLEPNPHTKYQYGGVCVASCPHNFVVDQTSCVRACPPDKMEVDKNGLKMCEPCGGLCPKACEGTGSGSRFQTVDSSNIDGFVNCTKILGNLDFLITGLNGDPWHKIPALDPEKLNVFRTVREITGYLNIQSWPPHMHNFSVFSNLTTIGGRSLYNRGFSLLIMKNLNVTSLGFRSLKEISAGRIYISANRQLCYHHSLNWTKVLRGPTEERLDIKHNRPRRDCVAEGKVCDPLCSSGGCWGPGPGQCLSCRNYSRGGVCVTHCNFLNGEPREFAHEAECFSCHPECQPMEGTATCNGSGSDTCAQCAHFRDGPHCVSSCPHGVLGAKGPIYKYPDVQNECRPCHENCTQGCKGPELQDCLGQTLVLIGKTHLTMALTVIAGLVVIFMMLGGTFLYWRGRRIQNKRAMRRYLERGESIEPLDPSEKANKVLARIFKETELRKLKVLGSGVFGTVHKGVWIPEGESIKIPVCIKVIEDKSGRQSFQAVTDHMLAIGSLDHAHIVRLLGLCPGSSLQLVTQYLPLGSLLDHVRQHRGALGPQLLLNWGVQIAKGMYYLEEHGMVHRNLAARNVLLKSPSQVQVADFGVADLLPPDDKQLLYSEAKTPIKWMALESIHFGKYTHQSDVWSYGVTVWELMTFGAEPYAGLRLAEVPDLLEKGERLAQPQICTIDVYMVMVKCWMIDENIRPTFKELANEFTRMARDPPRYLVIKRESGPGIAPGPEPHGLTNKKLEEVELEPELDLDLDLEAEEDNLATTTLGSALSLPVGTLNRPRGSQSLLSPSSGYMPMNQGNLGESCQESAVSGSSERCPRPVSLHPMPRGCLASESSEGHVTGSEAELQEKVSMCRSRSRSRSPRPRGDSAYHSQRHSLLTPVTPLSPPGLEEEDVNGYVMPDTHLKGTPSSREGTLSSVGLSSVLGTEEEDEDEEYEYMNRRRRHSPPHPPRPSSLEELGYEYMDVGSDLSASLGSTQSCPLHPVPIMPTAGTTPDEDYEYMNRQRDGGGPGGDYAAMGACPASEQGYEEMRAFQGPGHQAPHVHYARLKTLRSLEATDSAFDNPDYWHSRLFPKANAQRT

c-Met, sequence (P08581 25-1390): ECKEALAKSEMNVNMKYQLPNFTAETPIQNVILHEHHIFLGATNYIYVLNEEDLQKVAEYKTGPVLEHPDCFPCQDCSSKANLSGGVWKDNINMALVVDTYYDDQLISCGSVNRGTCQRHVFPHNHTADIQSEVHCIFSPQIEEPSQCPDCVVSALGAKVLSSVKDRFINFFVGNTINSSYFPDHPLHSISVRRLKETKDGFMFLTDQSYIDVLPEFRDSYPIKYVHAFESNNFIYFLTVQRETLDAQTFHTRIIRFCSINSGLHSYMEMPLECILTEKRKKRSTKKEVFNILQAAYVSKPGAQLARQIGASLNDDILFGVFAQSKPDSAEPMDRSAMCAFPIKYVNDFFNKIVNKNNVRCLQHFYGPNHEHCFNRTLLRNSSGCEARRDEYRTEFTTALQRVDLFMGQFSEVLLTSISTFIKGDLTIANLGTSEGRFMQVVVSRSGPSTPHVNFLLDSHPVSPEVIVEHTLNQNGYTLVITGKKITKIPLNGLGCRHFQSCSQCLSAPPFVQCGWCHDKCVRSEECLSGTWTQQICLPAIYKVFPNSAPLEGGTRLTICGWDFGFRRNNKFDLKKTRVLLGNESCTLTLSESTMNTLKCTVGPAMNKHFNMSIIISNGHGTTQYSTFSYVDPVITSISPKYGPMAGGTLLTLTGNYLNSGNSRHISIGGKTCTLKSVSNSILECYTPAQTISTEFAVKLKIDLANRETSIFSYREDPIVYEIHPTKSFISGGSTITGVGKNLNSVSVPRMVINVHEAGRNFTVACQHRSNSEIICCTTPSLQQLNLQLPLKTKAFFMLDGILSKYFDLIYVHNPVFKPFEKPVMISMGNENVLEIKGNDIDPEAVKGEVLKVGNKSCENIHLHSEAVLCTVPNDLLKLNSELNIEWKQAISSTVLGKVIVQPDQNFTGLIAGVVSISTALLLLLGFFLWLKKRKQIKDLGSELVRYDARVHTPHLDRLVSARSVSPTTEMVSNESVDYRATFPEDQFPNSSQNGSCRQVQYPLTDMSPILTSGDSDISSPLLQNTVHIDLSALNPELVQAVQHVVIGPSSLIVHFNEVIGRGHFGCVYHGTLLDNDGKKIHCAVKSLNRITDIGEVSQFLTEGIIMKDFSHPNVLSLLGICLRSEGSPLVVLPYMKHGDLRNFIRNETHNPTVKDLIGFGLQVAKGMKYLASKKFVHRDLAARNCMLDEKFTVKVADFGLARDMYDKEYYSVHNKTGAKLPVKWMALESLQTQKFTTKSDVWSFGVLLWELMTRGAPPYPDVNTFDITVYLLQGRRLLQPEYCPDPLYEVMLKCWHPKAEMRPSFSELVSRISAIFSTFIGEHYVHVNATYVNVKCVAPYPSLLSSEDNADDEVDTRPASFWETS

- decrease in phosphorylated ERK in HCC413, LZ-8 0.2 and 0.8 uM, 24 h; Western blot [1]: 85 to 90%
- phosphorylated JNK in HCC413, LZ-8 0.2 and 0.8 uM, 24 h; Western blot [1]: 50%
- phosphorylated c-jun in HCC413, LZ-8 0.2 and 0.8 uM, 24 h; Western blot [1]: 75%
- decrease in phosphorylated ERK in HCC413, LZ-8 0.2 and 0.8 uM, 24 h; Western blot [2]: 85 to 90%
- phosphorylated JNK in HCC413, LZ-8 0.2 and 0.8 uM, 24 h; Western blot [2]: 50%
- phosphorylated c-jun in HCC413, LZ-8 0.2 and 0.8 uM, 24 h; Western blot [2]: 75%
- decrease in phosphorylated ERK in HCC413, LZ-8 0.2 and 0.8 uM, 24 h; Western blot [3]: 85 to 90%
- phosphorylated JNK in HCC413, LZ-8 0.2 and 0.8 uM, 24 h; Western blot [3]: 50%
- phosphorylated c-jun in HCC413, LZ-8 0.2 and 0.8 uM, 24 h; Western blot [3]: 75%
B1: Ling-Zhi-8 (natural protein, Ganoderma lucidium, UniProt P14945 1-111, looked up)
chain: MSDTALIFRLAWDVKKLSFDYTPNWGRGNPNNFIDTVTFPKVLTDKAYTYRVAVSGRNLGVKPSYAVESDGSQKVNFLEYNSGYGIADTNTIQVFVVDPDTNNDFIIAQWN
